Source: article PMC9960230

Assays:
Conditions in all cases: domain or fragment
[1] = molecular target: Recombinant human FcRn conjugated with biotin (human) (UniProt P55899); test: SPR; native Fc, pH 5.4
[2] = molecular target: Recombinant human FcRn conjugated with biotin (human) (UniProt P55899); test: SPR; heme (Fe3+)-exposed Fc, pH 5.4
[3] = molecular target: Recombinant human FcRn conjugated with biotin (human) (UniProt P55899); test: SPR; heme-ox-exposed Fc, pH 5.4

Sequence of Recombinant human FcRn conjugated with biotin (human) (P55899 24-297): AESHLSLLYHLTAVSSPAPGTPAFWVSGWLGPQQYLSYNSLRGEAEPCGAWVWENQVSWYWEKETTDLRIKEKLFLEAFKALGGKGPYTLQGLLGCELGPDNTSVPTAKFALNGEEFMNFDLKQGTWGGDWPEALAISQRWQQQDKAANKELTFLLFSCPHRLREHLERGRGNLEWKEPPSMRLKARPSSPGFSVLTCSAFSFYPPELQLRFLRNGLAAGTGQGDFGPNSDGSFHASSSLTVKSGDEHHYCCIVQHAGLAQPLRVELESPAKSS

Fc-γ fragments obtained by papain digestion of polyclonal human IgG
Kd [1]: 9.1 nM | koff [1]: 0.00415 s⁻¹ | Kd [2]: 7.7 nM | koff [2]: 0.004 s⁻¹ | Kd [3]: 8 nM | koff [3]: 0.00367 s⁻¹
